Test results reported in patent publication US20040138133A1 (Scripps Research, published 2004).
No end group written: not given here.

Target: T1, Nck (adapter protein) from detergent extracts of human endothelial cells (human, UniProt P16333 2-377, limits assumed)
T1 construct: Endogenous protein pulled down from a cell lysate
Experiment: peptide-agarose pull-down from human endothelial cell lysate, anti-Nck western blot
Procedure: Affinity Chromatography. PRO or control peptides containing an N-terminal cysteine were dissolved in about 1 ml of coupling buffer (50 mM tris pH 8.0, 5 mM EDTA) and about 0.5 ml at about 3 mg/ml peptide added to about 2 ml of activated thiol-Sepharose (Pharmacia). Samples were incubated at a temperature of about 4° C. overnight with 1% β-mercaptoethanol added to block unreacted sites. Beads were rinsed and stored at a temperature of about 4° C. Endothelial cell cultures in 15 cm dishes were extracted in about 1.0 ml of cold (about 4° C.), lysis buffer (20 mM pH 7.4 sodium phosphate, 100 mM NaCl, 1% Triton X-100, 10 mM NaF, 2 mM EDTA, 1 mM sodium orthovanadate, 1 mM PMSF, 10 μg/ml each of leupeptin and aprotinin). The extracts were centrifuged for about 10 minutes at top speed in a microfuge and the supernatants were then removed. A 0.5 ml sample of each extract was incubated with about 10 μl of packed beads for about 1 hour, with rotation at a temperature of about 4° C. The beads were rinsed with lysis buffer (about 4×0.5 ml) and dissolved in SDS sample buffer (about 0.04 ml). Samples were analyzed by SDS PAGE on 10% gels and immunoblotting with anti-NCK (Santa Cruz) and HRP-protein A as secondary, and then were developed and detected using enhanced chemiluminescence (ECL kit, Amersham). […]

KAGAPPMRNTSTMC (also: C-terminal Cys coupled to thiol-Sepharose (agarose) beads, also called mutant peptide): no binding.
